Patent US20150344570A1 (published 2015)

Target: T1, FcγRIIa R (human, UniProt P12318 34-217)
T1 construct: extracellular domain; also called FcgRIIa R type; 2aR
T1 sequence (looked up): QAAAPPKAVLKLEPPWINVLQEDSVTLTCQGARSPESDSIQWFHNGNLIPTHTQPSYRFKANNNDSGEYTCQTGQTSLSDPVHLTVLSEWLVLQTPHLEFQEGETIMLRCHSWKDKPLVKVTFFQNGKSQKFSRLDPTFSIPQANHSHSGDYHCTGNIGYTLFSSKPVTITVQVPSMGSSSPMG
Assay: SPR (Biacore), captured antibody, FcγR as analyte; relative binding activity
Protocol: Analysis of interaction between objective antibody and the FcγR was carried out using Biacore T100 (GE Healthcare). HBS-EP+ (GE Healthcare) was used as the running buffer, and the measurement temperature was set to 25° C. Chips produced by immobilizing the antigen peptide by the amine coupling method to a Series S Sencor Chip CM5 (GE Healthcare), or alternatively, chips produced by allowing preliminarily biotinylated antigen peptides to interact with and immobilize onto a Series S Sensor Chip SA (certified) (GE Healthcare) were used. Antibodies of interest were captured onto an antigen peptide-immobilized chip, and allowed to interact to each FcγR diluted with running buffer. To regenerate and repeatedly use the chip, the antibodies captured on the chip were washed off by reacting 10 mM glycine-HCl, pH 1.5.

Binder | Ho/Con_2aR
GpH7-B3 variant N325_01G/GpL16-k0 (antibody, human IgG1, kappa, also called Ho Ab N325_01G) heavy: not shown light: DIVMTQSPLSLPVTPGEPASISCQASESLVHSNRNTYLHWYLQKPGQSPQLLIYKVSNRFSGVPDRFSGSGSGTDFTLKISRVEAEDVGVYYCSQNTHVPPTFGQGTKVEIERTVAAPSVFIFPPSDEQLKSGTASVVCLLNNFYPREAKVQWKVDNALQSGNSQESVTEQDSKDSTYSLSSTLTLSKADYEKHKVYACEVTHQGLSSPVTKSFNRGEC | 26.7 % (GpH7-B3/GpL16-k0 = 100)
GpH7-B3 variant G237_02A/GpL16-k0 (antibody, human IgG1, kappa, also called Ho Ab G237_02A) heavy: not shown light: DIVMTQSPLSLPVTPGEPASISCQASESLVHSNRNTYLHWYLQKPGQSPQLLIYKVSNRFSGVPDRFSGSGSGTDFTLKISRVEAEDVGVYYCSQNTHVPPTFGQGTKVEIERTVAAPSVFIFPPSDEQLKSGTASVVCLLNNFYPREAKVQWKVDNALQSGNSQESVTEQDSKDSTYSLSSTLTLSKADYEKHKVYACEVTHQGLSSPVTKSFNRGEC | 84 % (GpH7-B3/GpL16-k0 = 100)
GpH7-B3 variant E333_07I/GpL16-k0 (antibody, human IgG1, kappa, also called Ho Ab E333_07I) heavy: not shown light: DIVMTQSPLSLPVTPGEPASISCQASESLVHSNRNTYLHWYLQKPGQSPQLLIYKVSNRFSGVPDRFSGSGSGTDFTLKISRVEAEDVGVYYCSQNTHVPPTFGQGTKVEIERTVAAPSVFIFPPSDEQLKSGTASVVCLLNNFYPREAKVQWKVDNALQSGNSQESVTEQDSKDSTYSLSSTLTLSKADYEKHKVYACEVTHQGLSSPVTKSFNRGEC | 98.3 % (GpH7-B3/GpL16-k0 = 100)
GpH7-B3 variant G237_06M/GpL16-k0 (antibody, human IgG1, kappa, also called Ho Ab G237_06M) heavy: not shown light: DIVMTQSPLSLPVTPGEPASISCQASESLVHSNRNTYLHWYLQKPGQSPQLLIYKVSNRFSGVPDRFSGSGSGTDFTLKISRVEAEDVGVYYCSQNTHVPPTFGQGTKVEIERTVAAPSVFIFPPSDEQLKSGTASVVCLLNNFYPREAKVQWKVDNALQSGNSQESVTEQDSKDSTYSLSSTLTLSKADYEKHKVYACEVTHQGLSSPVTKSFNRGEC | 55.3 % (GpH7-B3/GpL16-k0 = 100)
GpH7-B3 variant A327_09D/GpL16-k0 (antibody, human IgG1, kappa, also called Ho Ab A327_09D) heavy: not shown light: DIVMTQSPLSLPVTPGEPASISCQASESLVHSNRNTYLHWYLQKPGQSPQLLIYKVSNRFSGVPDRFSGSGSGTDFTLKISRVEAEDVGVYYCSQNTHVPPTFGQGTKVEIERTVAAPSVFIFPPSDEQLKSGTASVVCLLNNFYPREAKVQWKVDNALQSGNSQESVTEQDSKDSTYSLSSTLTLSKADYEKHKVYACEVTHQGLSSPVTKSFNRGEC | 120 % (GpH7-B3/GpL16-k0 = 100)
GpH7-B3 variant G236_14T/GpL16-k0 (antibody, human IgG1, kappa, also called Ho Ab G236_14T) heavy: not shown light: DIVMTQSPLSLPVTPGEPASISCQASESLVHSNRNTYLHWYLQKPGQSPQLLIYKVSNRFSGVPDRFSGSGSGTDFTLKISRVEAEDVGVYYCSQNTHVPPTFGQGTKVEIERTVAAPSVFIFPPSDEQLKSGTASVVCLLNNFYPREAKVQWKVDNALQSGNSQESVTEQDSKDSTYSLSSTLTLSKADYEKHKVYACEVTHQGLSSPVTKSFNRGEC | 80 % (GpH7-B3/GpL16-k0 = 100)
GpH7-B3 variant A330_12R/GpL16-k0 (antibody, human IgG1, kappa, also called Ho Ab A330_12R) heavy: not shown light: DIVMTQSPLSLPVTPGEPASISCQASESLVHSNRNTYLHWYLQKPGQSPQLLIYKVSNRFSGVPDRFSGSGSGTDFTLKISRVEAEDVGVYYCSQNTHVPPTFGQGTKVEIERTVAAPSVFIFPPSDEQLKSGTASVVCLLNNFYPREAKVQWKVDNALQSGNSQESVTEQDSKDSTYSLSSTLTLSKADYEKHKVYACEVTHQGLSSPVTKSFNRGEC | 101 % (GpH7-B3/GpL16-k0 = 100)
GpH7-B3 variant E333_04F/GpL16-k0 (antibody, human IgG1, kappa, also called Ho Ab E333_04F) heavy: not shown light: DIVMTQSPLSLPVTPGEPASISCQASESLVHSNRNTYLHWYLQKPGQSPQLLIYKVSNRFSGVPDRFSGSGSGTDFTLKISRVEAEDVGVYYCSQNTHVPPTFGQGTKVEIERTVAAPSVFIFPPSDEQLKSGTASVVCLLNNFYPREAKVQWKVDNALQSGNSQESVTEQDSKDSTYSLSSTLTLSKADYEKHKVYACEVTHQGLSSPVTKSFNRGEC | 92.4 % (GpH7-B3/GpL16-k0 = 100)
GpH7-B3 variant E333_05P/GpL16-k0 (antibody, human IgG1, kappa, also called Ho Ab E333_05P) heavy: not shown light: DIVMTQSPLSLPVTPGEPASISCQASESLVHSNRNTYLHWYLQKPGQSPQLLIYKVSNRFSGVPDRFSGSGSGTDFTLKISRVEAEDVGVYYCSQNTHVPPTFGQGTKVEIERTVAAPSVFIFPPSDEQLKSGTASVVCLLNNFYPREAKVQWKVDNALQSGNSQESVTEQDSKDSTYSLSSTLTLSKADYEKHKVYACEVTHQGLSSPVTKSFNRGEC | 99.9 % (GpH7-B3/GpL16-k0 = 100)
GpH7-B3 variant A330_11K/GpL16-k0 (antibody, human IgG1, kappa, also called Ho Ab A330_11K) heavy: not shown light: DIVMTQSPLSLPVTPGEPASISCQASESLVHSNRNTYLHWYLQKPGQSPQLLIYKVSNRFSGVPDRFSGSGSGTDFTLKISRVEAEDVGVYYCSQNTHVPPTFGQGTKVEIERTVAAPSVFIFPPSDEQLKSGTASVVCLLNNFYPREAKVQWKVDNALQSGNSQESVTEQDSKDSTYSLSSTLTLSKADYEKHKVYACEVTHQGLSSPVTKSFNRGEC | 106 % (GpH7-B3/GpL16-k0 = 100)
GpH7-B3 variant G237_04F/GpL16-k0 (antibody, human IgG1, kappa, also called Ho Ab G237_04F) heavy: not shown light: DIVMTQSPLSLPVTPGEPASISCQASESLVHSNRNTYLHWYLQKPGQSPQLLIYKVSNRFSGVPDRFSGSGSGTDFTLKISRVEAEDVGVYYCSQNTHVPPTFGQGTKVEIERTVAAPSVFIFPPSDEQLKSGTASVVCLLNNFYPREAKVQWKVDNALQSGNSQESVTEQDSKDSTYSLSSTLTLSKADYEKHKVYACEVTHQGLSSPVTKSFNRGEC | 113 % (GpH7-B3/GpL16-k0 = 100)
GpH7-B3 variant A327_10E/GpL16-k0 (antibody, human IgG1, kappa, also called Ho Ab A327_10E) heavy: not shown light: DIVMTQSPLSLPVTPGEPASISCQASESLVHSNRNTYLHWYLQKPGQSPQLLIYKVSNRFSGVPDRFSGSGSGTDFTLKISRVEAEDVGVYYCSQNTHVPPTFGQGTKVEIERTVAAPSVFIFPPSDEQLKSGTASVVCLLNNFYPREAKVQWKVDNALQSGNSQESVTEQDSKDSTYSLSSTLTLSKADYEKHKVYACEVTHQGLSSPVTKSFNRGEC | 104 % (GpH7-B3/GpL16-k0 = 100)
GpH7-B3 variant A330_01G/GpL16-k0 (antibody, human IgG1, kappa, also called Ho Ab A330_01G) heavy: not shown light: DIVMTQSPLSLPVTPGEPASISCQASESLVHSNRNTYLHWYLQKPGQSPQLLIYKVSNRFSGVPDRFSGSGSGTDFTLKISRVEAEDVGVYYCSQNTHVPPTFGQGTKVEIERTVAAPSVFIFPPSDEQLKSGTASVVCLLNNFYPREAKVQWKVDNALQSGNSQESVTEQDSKDSTYSLSSTLTLSKADYEKHKVYACEVTHQGLSSPVTKSFNRGEC | 106 % (GpH7-B3/GpL16-k0 = 100)
GpH7-B3 variant E269_09D/GpL16-k0 (antibody, human IgG1, kappa, also called Ho Ab E269_09D) heavy: not shown light: DIVMTQSPLSLPVTPGEPASISCQASESLVHSNRNTYLHWYLQKPGQSPQLLIYKVSNRFSGVPDRFSGSGSGTDFTLKISRVEAEDVGVYYCSQNTHVPPTFGQGTKVEIERTVAAPSVFIFPPSDEQLKSGTASVVCLLNNFYPREAKVQWKVDNALQSGNSQESVTEQDSKDSTYSLSSTLTLSKADYEKHKVYACEVTHQGLSSPVTKSFNRGEC | 103 % (GpH7-B3/GpL16-k0 = 100)
GpH7-B3 variant A330_19Q/GpL16-k0 (antibody, human IgG1, kappa, also called Ho Ab A330_19Q) heavy: not shown light: DIVMTQSPLSLPVTPGEPASISCQASESLVHSNRNTYLHWYLQKPGQSPQLLIYKVSNRFSGVPDRFSGSGSGTDFTLKISRVEAEDVGVYYCSQNTHVPPTFGQGTKVEIERTVAAPSVFIFPPSDEQLKSGTASVVCLLNNFYPREAKVQWKVDNALQSGNSQESVTEQDSKDSTYSLSSTLTLSKADYEKHKVYACEVTHQGLSSPVTKSFNRGEC | 99.1 % (GpH7-B3/GpL16-k0 = 100)
GpH7-B3 variant A330_05P/GpL16-k0 (antibody, human IgG1, kappa, also called Ho Ab A330_05P) heavy: not shown light: DIVMTQSPLSLPVTPGEPASISCQASESLVHSNRNTYLHWYLQKPGQSPQLLIYKVSNRFSGVPDRFSGSGSGTDFTLKISRVEAEDVGVYYCSQNTHVPPTFGQGTKVEIERTVAAPSVFIFPPSDEQLKSGTASVVCLLNNFYPREAKVQWKVDNALQSGNSQESVTEQDSKDSTYSLSSTLTLSKADYEKHKVYACEVTHQGLSSPVTKSFNRGEC | 36.2 % (GpH7-B3/GpL16-k0 = 100)
GpH7-B3 variant G237_08L/GpL16-k0 (antibody, human IgG1, kappa, also called Ho Ab G237_08L) heavy: not shown light: DIVMTQSPLSLPVTPGEPASISCQASESLVHSNRNTYLHWYLQKPGQSPQLLIYKVSNRFSGVPDRFSGSGSGTDFTLKISRVEAEDVGVYYCSQNTHVPPTFGQGTKVEIERTVAAPSVFIFPPSDEQLKSGTASVVCLLNNFYPREAKVQWKVDNALQSGNSQESVTEQDSKDSTYSLSSTLTLSKADYEKHKVYACEVTHQGLSSPVTKSFNRGEC | 56.6 % (GpH7-B3/GpL16-k0 = 100)
GpH7-B3 variant E333_08L/GpL16-k0 (antibody, human IgG1, kappa, also called Ho Ab E333_08L) heavy: not shown light: DIVMTQSPLSLPVTPGEPASISCQASESLVHSNRNTYLHWYLQKPGQSPQLLIYKVSNRFSGVPDRFSGSGSGTDFTLKISRVEAEDVGVYYCSQNTHVPPTFGQGTKVEIERTVAAPSVFIFPPSDEQLKSGTASVVCLLNNFYPREAKVQWKVDNALQSGNSQESVTEQDSKDSTYSLSSTLTLSKADYEKHKVYACEVTHQGLSSPVTKSFNRGEC | 97.1 % (GpH7-B3/GpL16-k0 = 100)
GpH7-B3 variant A330_15Y/GpL16-k0 (antibody, human IgG1, kappa, also called Ho Ab A330_15Y) heavy: not shown light: DIVMTQSPLSLPVTPGEPASISCQASESLVHSNRNTYLHWYLQKPGQSPQLLIYKVSNRFSGVPDRFSGSGSGTDFTLKISRVEAEDVGVYYCSQNTHVPPTFGQGTKVEIERTVAAPSVFIFPPSDEQLKSGTASVVCLLNNFYPREAKVQWKVDNALQSGNSQESVTEQDSKDSTYSLSSTLTLSKADYEKHKVYACEVTHQGLSSPVTKSFNRGEC | 87.5 % (GpH7-B3/GpL16-k0 = 100)
GpH7-B3 variant E333_15Y/GpL16-k0 (antibody, human IgG1, kappa, also called Ho Ab E333_15Y) heavy: not shown light: DIVMTQSPLSLPVTPGEPASISCQASESLVHSNRNTYLHWYLQKPGQSPQLLIYKVSNRFSGVPDRFSGSGSGTDFTLKISRVEAEDVGVYYCSQNTHVPPTFGQGTKVEIERTVAAPSVFIFPPSDEQLKSGTASVVCLLNNFYPREAKVQWKVDNALQSGNSQESVTEQDSKDSTYSLSSTLTLSKADYEKHKVYACEVTHQGLSSPVTKSFNRGEC | 96.2 % (GpH7-B3/GpL16-k0 = 100)
GpH7-B3 variant E333_09D/GpL16-k0 (antibody, human IgG1, kappa, also called Ho Ab E333_09D) heavy: not shown light: DIVMTQSPLSLPVTPGEPASISCQASESLVHSNRNTYLHWYLQKPGQSPQLLIYKVSNRFSGVPDRFSGSGSGTDFTLKISRVEAEDVGVYYCSQNTHVPPTFGQGTKVEIERTVAAPSVFIFPPSDEQLKSGTASVVCLLNNFYPREAKVQWKVDNALQSGNSQESVTEQDSKDSTYSLSSTLTLSKADYEKHKVYACEVTHQGLSSPVTKSFNRGEC | 96.5 % (GpH7-B3/GpL16-k0 = 100)
